Reference: the supplement of paper PMC10567573

B1: EPB41L3 (parent)
chain: GSKFRYSGRTQAQTRRASALIDRP

Variants of: B1
Experiment: protein stability index of a GFP-peptide fusion (GPS, HEK-293T) (PSI 1-6); higher = more stable
Conditions: c terminus: a fixed tail appended
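Also: lentivirally expressed fusions sorted by FACS into six bins by GFP to DsRed ratio, PSI derived from sequencing read proportions per bin multiplied by bin number.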

Protein stability index: each site, then its substitutions
P24: S 2.8; V 3.05; Y 2.78; G 3.32; A 2.57; L 2.56; C 3.06; K 3.44; E 3.19; H 3.47; F 3.05; D 3.56; T 3.05; N 2.8; I 2.71; W 2.32; Q 2.79; M 3; R 3.54
R16: W 2.41; S 3.08; L 3.11; F 2.9; G 3.87; N 3.42; T 3.4; I 2.72; Y 2.78; P 3.15; K 2.83; V 2.34; M 2.67; C 2.52; Q 3.31; H 3.32; A 2.63; E 3.34; D 3.56
I21: V 3.2; D 3.58; G 3.9; K 3.48; A 3.78; Y 2.73; P 2.71; L 3.17; R 3.71; S 3; Q 3.06; M 3.6; N 3.95; C 2.64; T 3.21; W 2.4; E 3.4; H 3.32; F 2.97
S18: I 2.7; E 3.62; Q 3.19; G 3.54; L 3.01; K 3.29; T 2.29; D 3.52; Y 2.27; V 2.85; R 3.08; M 2.71; H 3.42; F 2.16; A 3.02; W 2.58; N 3.25; C 2.5; P 3.73
A19: K 3.39; I 3.04; L 3.12; D 3.6; M 3.07; G 2.91; P 2.68; E 3.28; N 3.4; Q 3.22; W 2.45; T 3.3; S 3.41; Y 2.07; F 2.41; C 2.74; H 3.26; R 3.43; V 2.42
L20: E 3.89; C 3.12; S 3.46; K 3.79; D 3.84; R 3.28; P 3.15; G 3.16; N 3.78; T 3.62; M 3.59; W 3.23; I 3.19; V 3.52; A 3.29; Y 3.02; H 3.37; Q 3.79; F 2.65
A17: Y 2.54; K 3.16; P 2.96; N 3.19; C 2.09; G 3.22; I 3.25; M 3.02; S 3.12; R 3.25; W 2.21; T 2.99; L 2.65; V 2.66; H 2.57; F 2.52; E 3.54; Q 3.58; D 3.41
R15: T 3.58; Y 2.54; W 2.45; V 2.99; Q 2.9; S 2.81
R23: G 3.01; W 2.77; T 2.58; P 3.02; C 2.89; V 2.67; D 3.44; I 2.11; S 3.01; F 2.69; L 2.71; M 2.41; Y 2.5; E 3.32; K 2.94; H 3.16; Q 3.12; A 2.81; N 2.67
D22: A 2.63; T 3.02; N 2.82; E 3.72; Y 2.29; P 3.09; F 3.4; H 3.7; V 2.66; R 3.45; G 2.67; I 2.83; M 2.69; S 3.11; K 2.7; L 2.99; W 2.72; C 2.99; Q 3.54
